Earlier results on two substances are cited in article PMC8820802.

The subject of this data set is streptavidin. Particulars: 50 mM Tris-HCl pH 7.6, 10 mM MgCl2, 100 mM KCl, 10% glycerol, 0.05% NP-40, protease inhibitor; HEK293T lysate on streptavidin-Sepharose, 16 h, 4 C.

S1 aptamer: the Kd is 79 nM. As for S1m aptamer, the Kd is 29 nM.
